Test results: article PMC9075797

Each substance was assayed against SARS-CoV-2 RBD tagged with a C-terminal Fc tag (SARS-CoV-2; strain not stated, ancestral (Wuhan-Hu-1) assumed) (UniProt P0DTC2) (assay: BLI).

Compared with “(Nb1C)2, Tet-linked homodimer of VHH72 with Tet3.0 at the C terminus”, “Nb1-Nb1-Nb1 tail-to-head genetically linked trimer of VHH72” is 4.7-fold lower in Kd: 0.132 µM for the first, 0.0279 µM for the second.

Compared with “(Nb1C)2, Tet-linked homodimer of VHH72 with Tet3.0 at the C terminus”, “Nb1-Nb1 tail-to-head genetically linked dimer of VHH72” is 2-fold lower in koff: 0.0064 s⁻¹ for the first, 0.00314 s⁻¹ for the second.

Work on “Nb1-Nb1-Nb1 tail-to-head genetically linked trimer of VHH72” yielded a koff of 0.00156 s⁻¹.

“(Nb1C)2, Tet-linked homodimer of VHH72 with Tet3.0 at the C terminus” and “Nb1-Nb1 tail-to-head genetically linked dimer of VHH72” are within 1.5-fold of each other in kon: 48100 M⁻¹ s⁻¹ for the first, 35400 M⁻¹ s⁻¹ for the second.

“Nb1-Nb1-Nb1 tail-to-head genetically linked trimer of VHH72” was tested, and the kon was 57900 M⁻¹ s⁻¹.

Each substance was assayed against SARS-CoV-2 RBD tagged with a C-terminal Fc tag (SARS-CoV-2) (UniProt P0DTC2) (assay: BLI).

Compared with “(Nb1N)2, Tet-linked homodimer of VHH72 with Tet3.0 at the N terminus”, “(Nb1N)3, Tet-linked homotrimer of VHH72 with Tet3.0 at the N terminus” is 6-fold lower in Kd: 0.0138 µM for the first, 0.00231 µM for the second. The second binds more tightly here.

Compared with “(Nb1N)-(Nb2_(42)), Tet-linked heterodimer of VHH72 (Tet3.0 at the N terminus) and H11-H4 (Tet3.0 at Gly42)”, “(Nb1_(13))2, Tet-linked homodimer of VHH72 with Tet3.0 at Gln13” is 12-fold higher in Kd: 0.00393 µM for the first, 0.046 µM for the second. The first binds more tightly here.

“(Nb1_(42))2, Tet-linked homodimer of VHH72 with Tet3.0 at Gly42” gave a Kd of 0.0275 µM.

Going from “(Nb1N)2, Tet-linked homodimer of VHH72 with Tet3.0 at the N terminus” to “(Nb1N)3, Tet-linked homotrimer of VHH72 with Tet3.0 at the N terminus”, the koff falls from 0.00119 s⁻¹ to 0.000566 s⁻¹ (2.1-fold).

First: (Nb1N)-(Nb2_(42)), Tet-linked heterodimer of VHH72 (Tet3.0 at the N terminus) and H11-H4 (Tet3.0 at Gly42)
Second: (Nb1_(13))2, Tet-linked homodimer of VHH72 with Tet3.0 at Gln13
The koff of the first is 2.6-fold lower: 0.000593 s⁻¹ for the first, 0.00156 s⁻¹ for the second.

With “(Nb1_(42))2, Tet-linked homodimer of VHH72 with Tet3.0 at Gly42” the koff was 0.00201 s⁻¹.

Going from “(Nb1N)2, Tet-linked homodimer of VHH72 with Tet3.0 at the N terminus” to “(Nb1N)3, Tet-linked homotrimer of VHH72 with Tet3.0 at the N terminus”, the kon rises from 85800 M⁻¹ s⁻¹ to 246000 M⁻¹ s⁻¹ (2.9-fold).

Going from “(Nb1N)-(Nb2_(42)), Tet-linked heterodimer of VHH72 (Tet3.0 at the N terminus) and H11-H4 (Tet3.0 at Gly42)” to “(Nb1_(13))2, Tet-linked homodimer of VHH72 with Tet3.0 at Gln13”, the kon falls from 151000 M⁻¹ s⁻¹ to 33800 M⁻¹ s⁻¹ (4.5-fold).

For “(Nb1_(42))2, Tet-linked homodimer of VHH72 with Tet3.0 at Gly42”, the kon was 73100 M⁻¹ s⁻¹.
